These results are taken from article PMC8264439.

By stoichiometry N is commonly meant the number of molecules, sites or subunits per partner or assembly.

Common to all, as to experiment: SEC; analytical Superdex 200 increase 10/300 GL; 180 μM protein in 50 μL injected; 20 mM Hepes (pH 7.5); 0.75 ml/min; 25°C; dimer to monomers
(In general: Size exclusion chromatography separates by hydrodynamic size, large species first.)

Assay [1] concerns the target SARS-CoV-2 3CLpro C145A variant (SARS-CoV-2).
For assay [2] the target is unchanged. The source holds these as a separate data set.
Assay [3] concerns the target SARS-CoV-2 3CLpro C145S variant (SARS-CoV-2).
Assay [4] has the same target. This is another data set of the same source.
The target in assay [5] is SARS-CoV-2 3CLpro H41A variant (SARS-CoV-2).
The target of assay [6] is SARS-CoV-2 3CLpro H41D variant (SARS-CoV-2).
Assay [7] deals with SARS-CoV-2 3CLpro H41E variant (SARS-CoV-2).

Read-outs that look alike come from different tables or passages of the source.

Regarding “SARS-CoV-2 3CLpro C145A variant (enzyme)”, the stoichiometry N was greater than 2 in assay [1] and 2 in assay [2].

Turning to “SARS-CoV-2 3CLpro C145S variant (enzyme)”, the stoichiometry N is 2 in assay [3] and greater than 2 in assay [4].

Regarding SARS-CoV-2 3CLpro H41A variant (enzyme), the stoichiometry N in assay [5] worked out at 2.

In turn, SARS-CoV-2 3CLpro H41D variant (enzyme) yielded a stoichiometry N in assay [6] of 2.

For SARS-CoV-2 3CLpro H41E variant (enzyme), in assay [7], the stoichiometry N was 2.
